In the assay the target is T1, SpA wild type (Staphylococcal protein A, recombinant) (Staphylococcus aureus NCTC 8325, UniProt P02976, biotinylated (only for the beads of the phagocytosis assays); chemically coupled by amines to MagPlex beads in the Luminex assays).
T1 construct: Staphylococcal protein A (SpA) of S. aureus strain NCTC 8325, locus tag SAOUHSC_00069; In the functional rows on bacteria the SpA is that on S. aureus USA300 lac, not this recombinant protein; also called SpAwt
Put plainly: Luminex bead displacement assay; SpAwt coupled to MagPlex beads, saturated with biotinylated human IgGs (8 µg/mL, 30 min, room temperature), washed, then incubated with serially diluted IgG3 mAbs 1-4 or IgG3 isotype control in PBS; remaining human IgGs revealed with streptavidin-PE. The settings on record: both partners purified.

T1 sequence (P02976 37-485): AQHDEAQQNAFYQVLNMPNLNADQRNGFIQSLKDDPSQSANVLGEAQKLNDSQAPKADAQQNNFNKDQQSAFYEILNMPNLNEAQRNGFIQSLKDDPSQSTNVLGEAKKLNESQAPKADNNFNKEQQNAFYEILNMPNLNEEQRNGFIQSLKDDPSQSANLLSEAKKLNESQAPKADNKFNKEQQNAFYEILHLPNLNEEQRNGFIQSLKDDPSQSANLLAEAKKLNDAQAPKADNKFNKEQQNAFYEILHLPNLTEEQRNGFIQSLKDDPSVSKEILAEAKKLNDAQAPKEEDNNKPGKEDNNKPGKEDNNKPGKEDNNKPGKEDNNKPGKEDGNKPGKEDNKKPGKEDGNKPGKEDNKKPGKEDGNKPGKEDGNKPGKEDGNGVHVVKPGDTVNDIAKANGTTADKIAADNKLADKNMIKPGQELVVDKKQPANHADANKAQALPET

B1: anti-SpA monoclonal antibody mAb-2 in IgG3 scaffold (antibody, V domains shown)
VH: QVQLVQSGAEVKKPGASVKVSCKASGYTFTRYYMHWVRQAPGQGLEWMGWINPPSGGTNYAQKFQGRVTMTRDTSTSTVYMELSSLRSEDTAVYYCARDPPMGQGMDVWGQGTLVTVSS
VL: EIVLTQSPATLSVSPGERATLSCRASQSISSYLNWYQQKPGQAPRLLIYAASSLQSGIPARFSGSGSGTEFTLTISSLQSEDFAVYYCQQSFVAPFTFGGGTKVEIK
notes: heavy variable region; human IgG3 scaffold (heavy constant region); light chain; IgG3; also called IgG3 mAb-2; source: Expi293, transient transfection, purified (protein G)
Consider B1, for which the binding result is on record as “binds”.

B2: anti-SpA monoclonal antibody mAb-3 in IgG3 scaffold (antibody, V domains shown)
VH: QVQLVQSGAEVKKPGASVKVSCKASGYTFSHYYMHWVRQAPGQGLEWMGIINPRYGSTSYAQKFQGRVTMTRDTSTSTVYMELSSLRSEDTAVYYCARDGEVGARDLGWFDPWGQGTLVTVSS
VL: EIVLTQSPATLSVSPGERATLSCRASQSVSSNLAWYQQKPGQAPRLLIYGASTRATGIPARFSGSGSGTEFTLTISSLQSEDFAVYYCQQYTPLPWTFGGGTKVEIK
notes: heavy variable region; human IgG3 scaffold (heavy constant region); light chain; IgG3; also called IgG3 mAb-3; source: Expi293, transient transfection, purified (protein G)
In the case of B2, the binding result is listed as “binds”.

B3: anti-SpA monoclonal antibody mAb-1 in IgG3 scaffold (antibody, V domains shown)
VH: EVQLVESGGGLVQPGGSLRLSCAASGFTFSTYGMSWVRQAPGKGLEWVSSITGSGRSTFYADSVKGRFTISRDNSTNTLSLQMNSLRAEDTAVYYCARSPADIVTGYYPWWFDLWGQGTLVTVSS
VL: DIQMTQSPSSLSASIGDRVTITCRASQSINTYLNWYQQKPGKAPRLLIAGASSLQSGVPSRFSGSGSGTDFTLTISSLQPEDFATYYCQQANSFPLTFGQGTRLEIK
notes: heavy variable region; human IgG3 scaffold (heavy constant region); light chain; IgG3; also called IgG3 mAb-1; source: Expi293, transient transfection, purified (protein G)
For B3, the binding result is reported as “binds”.

The values are drawn from article PMC8963248, “Natural Human Immunity Against Staphylococcal Protein A Relies on Effector Functions Triggered by IgG3” (Frontiers in Immunology, 2022).
